This experiment concerns the target CY5-CAS9:sgRNA complex (1:1 molar ratio) (S. pyogenes) (UniProt Q99ZW2). Description: fluorescence titration of 5 nM CY5-CAS9:sgRNA (1:1) with increasing peptide, quadratic fit.

In the case of CADY (peptide), the Kd (as a rule, the constant that tells how readily two partners part at equilibrium) was 21 nM.

(Values after patent publication US20190211317A1, “PEPTIDES AND NANOPARTICLES FOR INTRACELLULAR DELIVERY OF GENOME-EDITING MOLECULES” (Aadigen, LLC, priority 2016, published 2019).)
